The values that follow are results of earlier work, collected in PMC2854688.

“And” between values parts separate entries of the source, which are not always exact repeats. Equal values may be shown once.

As usually defined, the Kd is the constant that tells how readily two partners part at equilibrium.

Data set [1] addresses eRF3 overlapping PAM2 peptide PAM2 (Homo sapiens) (UniProt P15170).
The target of data set [2] is eRF3 PAM2 peptide PAM2 (Homo sapiens) (UniProt P15170).

As for “PABPC1 MLLE domain MLLE (from UniProt P11940)”, the Kd in data set [1] is 1.3 µM; in data set [2], 3.9 µM and 3.1 µM.
